Results: article PMC4654454 (ACS chemical biology, 2015)
Positions count from the first letter of the chain named. No end group written: not given here.

Key:
[1] = biological target: T1, hORC1 BAH domain, wild type (human, UniProt Q13415 45-171); test: EMSA
T1 sequence: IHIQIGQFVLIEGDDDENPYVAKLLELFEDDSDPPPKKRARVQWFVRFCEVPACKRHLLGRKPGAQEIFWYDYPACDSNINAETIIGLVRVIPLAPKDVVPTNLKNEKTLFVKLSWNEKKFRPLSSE

[2] = biological target: T2, human Origin Recognition Complex subunit 1 BAH domain, wild type (human, UniProt Q13415 45-171); test: ITC
T2 sequence (looked up): T1 sequence

[3] = biological target: T3, human Origin Recognition Complex subunit 1 BAH domain, R105Q mutant (human, UniProt Q13415 45-171, R105Q); test: ITC
T3 sequence (looked up): T1 sequence with R61Q

B1: 14-bp DNA duplex (dsDNA)
DNA 1: GGAGGCCTCCTGCT
DNA 2: AGCAGGAGGCCTCC
Question: Does B1 bind [1]?
Answer: binds

Question: With GAKRHRCVLRDNY (not fully specified (residue 7)) [histone H4(14–25)Kc20me2 peptide] as the binder, how does the Kd [2] read?
Answer: 8.85 µM

Question: And the Kd [3]?
Answer: 8.33 µM
